Laboratory results: patent US20100211325A1

How the values were obtained:
[1] = target: Laminin 511/521 (LM511/521) (UniProt O15230); test: ELISA, 0.05 nM Lu gpFc captured by anti-human Fc, 5 nM LM511/521, anti-laminin detection
[2] = target: Laminin 511/521 (LM511/521) (UniProt O15230); test: SPR (Biacore X), Lu gpFc captured on protein A chip (40 RU), 100 µl injection of 10 nM LM511/521, total change in RU
[3] = target: Laminin 511/521 (LM511/521) (UniProt O15230); test: ELISA in buffers of pH 4.0 to 11.0 and 1M NaCl, negative control Fc fusion protein captured, LM511/521 added

Sequence of Muc18 Fc fusion protein (negative control) (P43121 24-559): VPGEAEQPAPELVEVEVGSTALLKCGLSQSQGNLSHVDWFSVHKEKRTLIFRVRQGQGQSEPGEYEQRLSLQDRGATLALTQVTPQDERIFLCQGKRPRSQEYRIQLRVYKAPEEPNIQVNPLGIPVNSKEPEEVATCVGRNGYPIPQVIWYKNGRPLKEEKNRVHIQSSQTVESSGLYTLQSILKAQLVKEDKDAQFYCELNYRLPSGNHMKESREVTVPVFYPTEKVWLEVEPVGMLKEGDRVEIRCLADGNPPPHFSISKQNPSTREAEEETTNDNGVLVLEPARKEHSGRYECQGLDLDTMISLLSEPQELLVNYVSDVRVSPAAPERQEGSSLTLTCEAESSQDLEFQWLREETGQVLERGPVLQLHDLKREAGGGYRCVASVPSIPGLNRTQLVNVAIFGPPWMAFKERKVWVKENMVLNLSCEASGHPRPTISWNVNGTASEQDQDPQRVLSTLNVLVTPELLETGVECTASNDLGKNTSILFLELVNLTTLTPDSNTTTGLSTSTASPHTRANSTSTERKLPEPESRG

Row | ELISA % of native Lu gpFc [1] | Biacore Δ RUs [2] | OD450 (background binding) [3] | Substance
1 | 26.4% | 38.5 RU |  | Lu gpFc D310A (from UniProt P50895 32-547) (Fc fusion)
2 | 93.2% | 116 RU |  | Lu gpFc D315A (from UniProt P50895 32-547) (Fc fusion)
3 | 75% | 79.8 RU |  | Lu gpFc D316A (from UniProt P50895 32-547) (Fc fusion)
4 | 90.7% | 85 RU |  | Lu gpFc E234A (from UniProt P50895 32-547) (Fc fusion)
5 |  |  | 0.18 to 0.64 OD450 | Muc18 Fc fusion protein (negative control) (from UniProt P43121 24-559)

Second part, the substance before the results:

Row | Substance | ELISA % of native Lu gpFc [1] | Biacore Δ RUs [2] | OD450 (background binding) [3]
6 | Lu gpFc D198A/D199A (from UniProt P50895 32-547) (Fc fusion) | 49% | 59.7 RU | 
7 | Lu gpFc D312A (from UniProt P50895 32-547) (Fc fusion) | 20.7% | 4.4 RU | 
8 | Lu gpFc E269A (from UniProt P50895 32-547) (Fc fusion) | 63.2% | 73.8 RU | 
9 | Lu gpFc E280A (from UniProt P50895 32-547) (Fc fusion) | 73% | 99.1 RU | 
10 | Lu gpFc E281A (from UniProt P50895 32-547) (Fc fusion) | 97.3% | 100 RU | 
11 | Lu gpFc E309A (from UniProt P50895 32-547) (Fc fusion) | 40.4% | 44.9 RU | 
